“Also recorded” adds a separate entry of the source.
Key:
DPP3 = biological target: T1, DPP3 (Homo sapiens, UniProt Q9NY33); details: literature; cited from earlier work
T1 sequence (Q9NY33 1-737): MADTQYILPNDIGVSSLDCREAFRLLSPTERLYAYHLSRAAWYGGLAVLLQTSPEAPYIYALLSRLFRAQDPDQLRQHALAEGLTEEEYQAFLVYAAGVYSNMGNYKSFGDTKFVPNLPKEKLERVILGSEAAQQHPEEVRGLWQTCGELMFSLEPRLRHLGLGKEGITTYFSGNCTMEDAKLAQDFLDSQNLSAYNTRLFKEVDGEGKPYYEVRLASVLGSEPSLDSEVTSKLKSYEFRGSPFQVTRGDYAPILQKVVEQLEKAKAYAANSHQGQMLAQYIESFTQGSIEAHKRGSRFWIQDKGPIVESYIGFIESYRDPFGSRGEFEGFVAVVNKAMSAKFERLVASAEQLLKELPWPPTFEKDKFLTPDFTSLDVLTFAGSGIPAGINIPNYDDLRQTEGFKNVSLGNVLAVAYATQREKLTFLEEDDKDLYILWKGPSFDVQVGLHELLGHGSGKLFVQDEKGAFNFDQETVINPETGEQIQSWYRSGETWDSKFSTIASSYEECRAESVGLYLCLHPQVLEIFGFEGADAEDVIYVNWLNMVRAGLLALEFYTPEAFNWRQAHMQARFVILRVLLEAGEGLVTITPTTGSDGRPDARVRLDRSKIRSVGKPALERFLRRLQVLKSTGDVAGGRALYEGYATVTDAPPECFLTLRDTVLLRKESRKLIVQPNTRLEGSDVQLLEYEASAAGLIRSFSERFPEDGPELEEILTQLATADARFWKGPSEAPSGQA

[1] = test system: healthy mice injected with DPP3; assay: Effect of Valsartan in healthy mice injected with DPP3; type: in vivo, Black 6 mice
Description: In this experiment, healthy Black 6 mice (8-12 weeks, group size refer to table 8) consumed water with 50 mg/kg Valsartan per day or just water (Table 8) for a period of two weeks. Subsequently, both groups received an intravenous injection of native DPP3 (600 μg/kg) and the shortening fraction was assessed according to Gao et al., 2011 at 15, 60 and 120 minutes (FIG. 12).

healthy mice = assay: Effect of native DPP3 injection in healthy mice; type: in vivo, Black 6 mice; details: 600 μg/kg i.v., versus PBS
Description: Wild type Black 6 mice (8-12 weeks, group size refer to table 3) were acclimated during 2 weeks and a baseline echocardiography was done. The mice were randomly allocated to one of the two groups and, subsequently, native DPP3 protein or PBS were injected intravenously via a retro-orbital injection with a dose of 600 μg/kg for DPP3 protein.
After DPP3 or PBS injection, cardiac function was assessed by echocardiography (Gao et al. 2011) and renal function assessed by renal resistive index (Lubas et al., 2014, Dewitte et al, 2012) at 15, 60 and 120 minutes (FIG. 3).

[2] = biological target: T2, native human DPP3 from blood cells (human, UniProt Q9NY33 2-737); assay: cell-based or functional assay
T2 sequence: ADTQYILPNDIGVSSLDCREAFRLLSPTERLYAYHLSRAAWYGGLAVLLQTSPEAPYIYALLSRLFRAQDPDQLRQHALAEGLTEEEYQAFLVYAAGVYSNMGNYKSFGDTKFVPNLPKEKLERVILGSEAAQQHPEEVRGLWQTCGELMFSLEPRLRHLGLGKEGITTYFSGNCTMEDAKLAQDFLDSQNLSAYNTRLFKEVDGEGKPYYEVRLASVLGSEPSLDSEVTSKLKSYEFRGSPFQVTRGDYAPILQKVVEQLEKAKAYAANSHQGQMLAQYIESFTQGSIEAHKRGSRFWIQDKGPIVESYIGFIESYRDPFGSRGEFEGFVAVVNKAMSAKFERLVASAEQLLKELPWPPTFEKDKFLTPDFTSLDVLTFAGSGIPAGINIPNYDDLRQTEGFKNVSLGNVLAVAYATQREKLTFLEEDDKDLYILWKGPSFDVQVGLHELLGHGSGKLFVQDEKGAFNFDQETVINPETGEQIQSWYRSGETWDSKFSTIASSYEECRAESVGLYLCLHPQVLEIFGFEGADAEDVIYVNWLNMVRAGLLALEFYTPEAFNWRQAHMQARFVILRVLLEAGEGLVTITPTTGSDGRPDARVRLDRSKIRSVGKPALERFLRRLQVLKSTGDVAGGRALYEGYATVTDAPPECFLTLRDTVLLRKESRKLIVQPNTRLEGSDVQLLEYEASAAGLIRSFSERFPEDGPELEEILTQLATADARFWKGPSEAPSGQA

## Cc1cc(=O)c2c(cc(O)c3c4c(O)cccc4c(=O)c32)c1=O [Fluostatin A]
DPP3
  inhibition of DPP3 activity: strongly inhibit DPP3 activity

## CC1C(=O)c2cc(O)c3c(c2C(O)C1O)C(=O)c1cccc(O)c1-3 (stereo not drawn) [Fluostatin B]
DPP3
  inhibition of DPP3 activity: strongly inhibit DPP3 activity

## CCCCC(=O)N(Cc1ccc(-c2ccccc2-c2nnn[nH]2)cc1)[C@H](C(=O)O)C(C)C [Valsartan]
[1]; 50 mg/kg Valsartan per day in water for two weeks, then native DPP3 600 μg/kg i.v.
  shortening fraction after DPP3 injection: rescued; also recorded: no signs of heart dysfunction

B1: native DPP3: native human DPP3 purified from human erythrocyte lysate (protein)
chain: T2 sequence
Healthy mice
  renal resistive index: renal resistive index increase
  shortening fraction: significantly reduced shortening fraction
Healthy mice; listed as DPP3
  renal resistive index: increased renal resistive index
  shortening fraction: shortening fraction reduction
[1]; native DPP3 600 μg/kg i.v., no Valsartan
  shortening fraction after DPP3 injection: significant decrease in the shortening fraction

B2: murine monoclonal anti-DPP3 antibody AK1967 (antibody, V domains shown)
VH: QVTLKESGPGILQPSQTLSLTCSFSGFSLSTSGMSVGWIRQPSGKGLEWLAHIWWNDNKSYNPALKSRLTISRDTSNNQVFLKIASVVTADTGTYFCARNYSYDYWGQGTTLTVSS
VL: DVVVTQTPLSLSVSLGDPASISCRSSRSLVHSIGSTYLHWYLQKPGQSPKLLIYKVSNRFSGVPDRFSGSGSGTDFTLKISRVEAEDLGVYFCSQSTHVPWTFGGGTKLEIK
[2]
  IC50 (read off the curve): ~10 ng/mL

Source: patent publication US20260201067A1, “DPP3 INHIBITOR FOR IMPROVEMENT OF PULMONARY FUNCTION IN CRITICALLY ILL PATIENTS” (4TEEN4 Pharmaceuticals GmbH, priority 2022, published 2026)
